Measured values as given in publication PMC10319725, “A mechanical-coupling mechanism in OSCA/TMEM63 channel mechanosensitivity” (Nature Communications, 2023).

Assays:
[1] = molecular target: the molecule itself; experiment: SEC; fluorescence-detection SEC (FSEC) of detergent-solubilised Expi293F cells (1% LMNG, 0.1% CHS; also DDM or GDN), Superose 6 increase 5/150 in TBS (20 mM Tris pH 8.0, 150 mM NaCl) with 10 uM LMNG, GFP fluorescence detected
[2] = molecular target: the molecule itself; experiment: cryo-EM structure; purified AtOSCA1.1 reconstituted in MSPE3D1 lecithin nanodiscs, TBS
[3] = molecular target: the molecule itself; experiment: cryo-EM structure; purified AtOSCA3.1 in a detergent environment; two conformations (contracted, extended) in one data set

B1: AtOSCA1.1-CGFP (natural protein, Arabidopsis thaliana)
chain: MATLKDIGVSAGINILTAFIFFIIFAFLRLQPFNDRVYFSKWYLRGLRSSPASGGGFAGRFVNLELRSYLKFLHWMPEALKMPERELIDHAGLDSVVYLRIYWLGLKIFAPIAMLAWAVLVPVNWTNNELELAKHFKNVTSSDIDKLTISNIPEGSNRFWAHIIMAYAFTIWTCYMLMKEYETVANMRLQFLASEGRRPDQFTVLVRNVPPDPDETVSELVEHFFLVNHPDNYLTHQVVCNANKLADLVSKKTKLQNWLDYYQLKYTRNNSQIRPITKLGCLGLCGQKVDAIEHYIAEVDKTSKEIAEERENVVNDQKSVMPASFVSFKTRWAAAVCAQTTQTRNPTEWLTEWAAEPRDIYWPNLAIPYVSLTVRRLVMNVAFFFLTFFFIIPIAFVQSLATIEGIEKVAPFLKVIIEKDFIKSLIQGLLAGIALKLFLIFLPAILMTMSKFEGFTSVSFLERRSASRYYIFNLVNVFLGSVIAGAAFEQLNSFLNQSPNQIPKTIGMAIPMKATFFITYIMVDGWAGVAGEILMLKPLIIYHLKNAFLVKTEKDREEAMNPGSIGFNTGEPQIQLYFLLGLVYAPVTPMLLPFILVFFALAYVVYRHQIINVYNQEYESAAAFWPDVHGRVITALIISQLLLMGLLGTKHAASAAPFLIALPVITIGFHRFCKGRFEPAFVRYPLQEAMMKDTLERAREPNLNLKGYLQDAYIHPVFKGGDNDDDGDMIGKLENEVIIVPTKRQSRRNTPAPSRISGESSPSLAVINGKEV
notes: AtOSCA1.1 from Arabidopsis thaliana, UniprotKB Q9XEA1; cDNA cloned into a C-terminally GFP-tagged BacMam vector; His8 and FLAG lie after GFP in the vector; also called Arabidopsis thaliana OSCA1.1; source: Expi293F, transfected, solubilised in LMNG-CHS, in cleared lysate; not shown: GFP, C-terminal, kept
stoichiometry N [1]: 2

B2: AtOSCA1.1 in lipid nanodisc (natural protein, Arabidopsis thaliana)
chain: MATLKDIGVSAGINILTAFIFFIIFAFLRLQPFNDRVYFSKWYLRGLRSSPASGGGFAGRFVNLELRSYLKFLHWMPEALKMPERELIDHAGLDSVVYLRIYWLGLKIFAPIAMLAWAVLVPVNWTNNELELAKHFKNVTSSDIDKLTISNIPEGSNRFWAHIIMAYAFTIWTCYMLMKEYETVANMRLQFLASEGRRPDQFTVLVRNVPPDPDETVSELVEHFFLVNHPDNYLTHQVVCNANKLADLVSKKTKLQNWLDYYQLKYTRNNSQIRPITKLGCLGLCGQKVDAIEHYIAEVDKTSKEIAEERENVVNDQKSVMPASFVSFKTRWAAAVCAQTTQTRNPTEWLTEWAAEPRDIYWPNLAIPYVSLTVRRLVMNVAFFFLTFFFIIPIAFVQSLATIEGIEKVAPFLKVIIEKDFIKSLIQGLLAGIALKLFLIFLPAILMTMSKFEGFTSVSFLERRSASRYYIFNLVNVFLGSVIAGAAFEQLNSFLNQSPNQIPKTIGMAIPMKATFFITYIMVDGWAGVAGEILMLKPLIIYHLKNAFLVKTEKDREEAMNPGSIGFNTGEPQIQLYFLLGLVYAPVTPMLLPFILVFFALAYVVYRHQIINVYNQEYESAAAFWPDVHGRVITALIISQLLLMGLLGTKHAASAAPFLIALPVITIGFHRFCKGRFEPAFVRYPLQEAMMKDTLERAREPNLNLKGYLQDAYIHPVFKGGDNDDDGDMIGKLENEVIIVPTKRQSRRNTPAPSRISGESSPSLAVINGKEV
notes: AtOSCA1.1 from Arabidopsis thaliana, UniprotKB Q9XEA1; GFP removed by HRV3C protease; His8 and FLAG lie after GFP in the vector and were probably removed with it; Embedded in MSPE3D1 lecithin nanodiscs; also called extended state of AtOSCA1.1; not shown: GFP, C-terminal, cleaved
stoichiometry N [2]: 2

B3: AtOSCA3.1 (natural protein, Arabidopsis thaliana)
chain: MEFGSFLVSLGTSFVIFVILMLLFTWLSRKSGNAPIYYPNRILKGLEPWEGTSLTRNPFAWMREALTSSEQDVVNLSGVDTAVHFVFLSTVLGIFACSSLLLLPTLLPLAATDNNIKNTKNATDTTSKGTFSQLDNLSMANITKKSSRLWAFLGAVYWISLVTYFFLWKAYKHVSSLRAQALMSADVKPEQFAILVRDMPAPPDGQTQKEFIDSYFREIYPETFYRSLVATENSKVNKIWEKLEGYKKKLARAEAILAATNNRPTNKTGFCGLVGKQVDSIEYYTELINESVAKLETEQKAVLAEKQQTAAVVFFTTRVAAASAAQSLHCQMVDKWTVTEAPEPRQLLWQNLNIKLFSRIIRQYFIYFFVAVTILFYMIPIAFVSAITTLKNLQRIIPFIKPVVEITAIRTVLESFLPQIALIVFLAMLPKLLLFLSKAEGIPSQSHAIRAASGKYFYFSVFNVFIGVTLAGTLFNTVKDIAKNPKLDMIINLLATSLPKSATFFLTYVALKFFIGYGLELSRIIPLIIFHLKKKYLCKTEAEVKEAWYPGDLSYATRVPGDMLILTITFCYSVIAPLILIFGITYFGLGWLVLRNQALKVYVPSYESYGRMWPHIHQRILAALFLFQVVMFGYLGAKTFFYTALVIPLIITSLIFGYVCRQKFYGGFEHTALEVACRELKQSPDLEEIFRAYIPHSLSSHKPEEHEFKGAMSRYQDFNAIAGV
notes: AtOSCA3.1 from Arabidopsis thaliana, UniprotKB Q9C8G5; also called contracted state of AtOSCA3.1; extended state of AtOSCA3.1; source: Expi293F infected by baculovirus, purified (DDM, TALON)
stoichiometry N [3]: 2
